This data set is described as follows: yeast display, Sf9 membrane polyspecificity reagent, FACS + sequencing; frameworks hold sequencing errors. The method in brief:
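In a synthetic yeast display library (Saccharomyces cerevisiae BJ5465), nanobody expression was induced with galactose for 36–48 hours. FACS gates were set low and high (top ~1%) using anti-HA fluorescence for expression and streptavidin fluorescence for binding of the Sf9 membrane reagent. Each polyreactivity label is drawn from the gate of origin.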
With “QVQLVESGGGLVQAGGSLRLSCAASGSIFSFYAMGWYRQAPGKERELVAAITSDGSTDYADSVKGRFTISRDNAKNTVYLQMNSLKPEDTAVYYCAADYIVRVVSRYRYGYEYWGQGTQVTVSS”, the “polyreactivity (PSR sort gate)” value is “low polyreactivity”.
To “QVQLVESGGGLVQAGGSLRLSCAASGSISIRNAMGWYRQAPGKERELVAAISRGGSTYYADSVKGRFTISRDNAKNTVYLQMNSLKPEDTAVYYCATDGGRYYRGREYAFKYYYWGQGTQVTVSS” belongs “high polyreactivity”.
“QVQLVESGGGLVQAGGSLRLSCAAMGWYRPAPGKERELVATITWSGGSTYYADSVKGRFTISRDNAKNTVYLQMNSLKPEDNAVYYCNARATLLSPANTIRGYDYWGQGTQVTVSS”: the “polyreactivity (PSR sort gate)” value is on record as “low polyreactivity”.
To “QVQLVESGGGLVQAGGSLRLSCAASGSSTLMLMGWYRQAPGKERELVAVITSSGGRTYYADSVKGRFTISRDNAKNTVYLQMNSLKPEDTAVYYCNVDIGVYAYESDYWGQGTQVTVSS” belongs “low polyreactivity”; to “QVQLVESGGGLVQAGGSLRLSCAASGSIFTHNAMGWYRPAPGKERELVAAISSGGSTYYADSVKGRFTISRDNAKNTVYLQMNSLKPEDTAVYYCAVRQGWYHFRYDYWGQGTQVTVSS”, “high polyreactivity”.
As for “QVQLVGSGGGLVQAGGSLRLSCAASGRIFRYNAMGWYRQAPGKEREFVATISWRGGNTYYADSVKGRFTISRDNAKNTVYLQMNSLKPEDTAVYYCATRRLYSKSWYYYWGQGTQVTVSS”, the “polyreactivity (PSR sort gate)” value is “high polyreactivity”.
In the case of “QVQLVESGGGLVQAGGRLRLSCAASGFIFTPYTMGWYRQSPGTERELVAAITDGSSTYYADSVNGRFTISRDNAKNTVNLQMNSLKPEDTAVYYCNADGKQPYISWLYDYWGQGTQVTVSS” it was “low polyreactivity”.
“QDQLVESGGGLVQAGGSLRLICAASGRTFYQYVMGWYRQAPGKERELVAAIRSGGNTYYADSVKGRFTISRDNAKNTVYLQMNSLKPEDTAVYYCAVQRGYYRYRLGRYGYDYWGQGTQVTVSS”: the “polyreactivity (PSR sort gate)” value is reported as “high polyreactivity”.
To “QVQLVESGGGLVQAGGSLRLSCAASGRTFRVYSMGWYRQAPGKERDFVAAITDSGGRTYYADSVKGRFTISRDNAKNTVYLQMNCLKPEDTAVYYCNAYQYYERYDTYLFRYDYWGQGTQVTVSS” belongs “low polyreactivity”.
To “QVQLVESGGGLVQAGGSLRLSCAASGSIFFPYAMGWYRQAPGKERELVAAISQSAGSTFYADSVKGRFTISRDNAKHTVYLQKNSLKPEDTAVYYCAKSGDADFYYTYYYWGQGTQVTVSS” belongs “low polyreactivity”.
“QVQLVESGGGLVQAGGSLRLSCAASGIIFYQYAMGWYRQAPGKERELVAAINTSGGSTYADSVKGRFTISRDNAKNTVYLQMNSLKPEDTAVYYCAASYRYVRWKWGYNYWGQGTQVTVSS”: the “polyreactivity (PSR sort gate)” value is recorded as “high polyreactivity”.
To “QVHLVESGGGLVQAGGTLRLSCAASGSIFATYGMGSYRQAPGKERELVAAITSSGGSTYYADSVKGRFTISRDHAKNTVYLQMNSLKPEDTAVYYFAADSYIIWYGSVVSYGEDSWGQGTQVTVSS” belongs “low polyreactivity”; to “QVQLVESGGGLVQARGSLRLSCAASGSIFFRYTMGWYRPAPGKEWELVATITGSGSSTTYADSVKGRFTISRDNAKNTVYLQMNSLKPEDTAVSYCAAADIIDHSFPYDYWGQGTQVTVSS”, “low polyreactivity”; to “QVQLVESGGGLVQAGGSLRLSCAASGRTFLVYAMGWYRQAPGKERELVATIRASTGSTYADSVKGRFTISRDNAKNTVYLQMNSLKPEDTAVYYCNAVHYFLYGYYSWGQGTQVTVSS”, “high polyreactivity”.
In the case of “QVHLVESGGGLVQAGGSLRLTCAASGRILWSYAMGWYRQAPGKERELVAAITSGTRTNYADSVKGRFTISRDNAKNTVYLQMNSVKPEDTAVFSCNAVSLRYRFDYWGQGTQLTVSS” it was “high polyreactivity”.
In the case of “QVQLVESGGGLVQAGGSLRLSCAASGSTFFYYAMGWYRQAPGKERELVAAISGGGGDTTYADSVKGRFTISRDNAKNTVYLQMNSLKPEDTAVYYCAAVPGSFGSGIFDYWGQGTQATVSS” it was “low polyreactivity”; in that of “QVQLVESGGGLVQAGGSLRLSCAASGSTFRLYAMGWYRQAPGKERELVAVISRSGGRTYADSVKGRFTISRDNAKNSVYFQMNSLKPEDTAVYYCAKARHKSATYTHDSWGQGTQVTVSS”, “high polyreactivity”; in that of “HVQLVESGGGLVQAGGSLRLSCAASGGTFTKYAMGWFRQAPGTEMELVAAISWRGTSTYYADSVKGRFTISRDNAKNTVYLQLYSLKPEDTAVHYCLPWVGYGRYKPGYKYDYWGQGTQVTVSS”, “high polyreactivity”.
For the sequence “QVQLVESGGGLVQAGGSLRLICPASGITFVYYAMVWYRQSPGKEMELVATNTKSGVSTYYADSVKGRFTISRDNAKNTVYLQMNSLKPEDTAVYYCAKEVSYRFYWTYDYWGQGTKVTVSS”, the “polyreactivity (PSR sort gate)” value is given as “low polyreactivity”.
In the case of “QVQLQESGGGLVQAGGSLRLTCAASRNISGSADLGWYHPAPGKEREFVASITSGGTTYYADSVKGRVTISRDNAKNTVYLQMNSLKPEDTAVYYCAVGDPADAEFGYWGQGSQVTVSS” it was “low polyreactivity”; in that of “QVQLVESGGGLVQAGGSLRLSCAASGRIFTYYTMGWYRQAPGKERELVASITGGGGRTYYADSVKGRFTISRDNAKNTVYLQMNSLKPEDTAVYYCNARYPYPYWYTSYDYWGQGTQVTVSS”, “high polyreactivity”; in that of “QVQLVESGGGLVQAGGSLRLSCAASGLTFHQNAMGWYRKAPGKDRELVAAISRRGGSTYYADSVKGRFTFSRDNAKNTVYLQMNSLKPEDTAVYYSNTRGKSGLWCYNYWGQGTQVTVSS”, “high polyreactivity”.
In the case of “QVQLVESGGGLVQAGGSLRLSCAASGSTFAWNAMGWYRQAPGKERELVAAISKSGGSTYYADSVKGRFTISRDHAKNTVYLQMNSLTPEDTAVYYCAARGTVYRRYGGSRYDYWGQGTQVTVSS”, the “polyreactivity (PSR sort gate)” value is “high polyreactivity”.
To “QVQLVESGGGLVQAGGSLRLSCAASGRTFPYYAMGWYRQAPGKEREFVAGISRTGGSTYYADSVKGRFTISRDNAKNTVYLQMNSLKPEDTAVYYCNAPYILTQQGGRRYDYWGQGTQVTVSS” belongs “high polyreactivity”; to “QVQLVESGGGLVQAGGSLRLSCAASGSTLEPNAMGWYRQAPGKERELVAAITIGGSTYYADSVKGRFTISRDNAKNTVYLQMNSLKPEDTSVYYCARRVSRYSWRNYWGQGTQVTVSS”, “high polyreactivity”; to “QVQLVESGGGLVQAGGSIRLSCAASGRTFACNSMGCYRQAPGKERELVARIRSSGSTYYADSVKGRFTISRDNAKNTVYLQMNSLKPEDTAVYYCAADIRFWYGYYYWGQGTQVTVSS”, “high polyreactivity”.
In the case of “QDQLVESGGCLVQAGGSLRLSCAASGSIFYVNAMGWYRPAPRKERELVAGISRSGGRTYYADSVKGRFTISRDNAKNTVYLHMNSLIPEDTAVYYCAALVGRIWYGLDYWGQGTQVTVSS” it was “high polyreactivity”.
For “QVQLVESGGGLVQAGGSLRLSCAASGSTLTVNVMGWYRHAPGKEREFVAAINDSGSTYYADSVKGRFTISRDNAKNTVYLQMNSLKPEDTAVYYCATYYWVGLSLYDYWGQGTQVTVSS”, the “polyreactivity (PSR sort gate)” value is recorded as “low polyreactivity”.
Take “QVQLVESGGGLVQAGGSLRLSCAASGFTFGYYAMGWYRQAPGKERELVARISDGGSTNYADSVKGRFTISRDNAKNTVYLQMNSLKQEDTAVYYCAADDTRGREEYDYWGQGTQVTVSS”: the “polyreactivity (PSR sort gate)” value was “high polyreactivity”.
In the case of “QVQLVETGGGLVHAGGSLRLSCAASGSIFGYYTMGWYIQAPGKERELFAAITYSGGSTYYADSVKGRFTISRDNAKNTVYLQMNSLKPDDTAVYYCNAKSAAHRYVRRHDYWGQGTQVTVSS” it was “low polyreactivity”; in that of “QVQLVESGGVLVQAGGSLRLSCAASGSTFTTNAMGWYRQAPGKERELVARISRIGASTHYADSVKGRFTISRDNAKNTVYLQMNSLKPEDTAVYYCAKSKGTPGNFGYWGQGTQVTVSS”, “low polyreactivity”.
On to “QVQLVESGGGLVQAGGSLRLSCAASGRIFPRYAMGWYRQAPGKERELVAAISWSGGRTYYADSVKGRFTISRDNAKNTVYLQMNSLKPEDTAVYYCAKYVGWYGSPGYDYWGQGTHVTVSS”, for which the “polyreactivity (PSR sort gate)” value is “low polyreactivity”.
With “QVQLVESGGGLVQAGGSLRLSCAASGITFDENTMGWYRQGPGKERELVAAITEIGGSTYYADSVKGRFTISRDNAKNTVYLQMHSLKPEDTAVYYCNAARWVGRFVDYEYWGQGTQVTVSS”, the “polyreactivity (PSR sort gate)” value is “low polyreactivity”.
In the case of “QVQLVESGGGLVQAGGSLRLSCAASGFIFYAYAMGWSRQAPGKERELVAAISGSGGSTYYADSVKGRFTISRDNAKNTVYLQMNSLKPEDTAVYYCAARSRVSNRSYYYWGQGTQVTVSS” it was “high polyreactivity”; in that of “QVQLVESRGGLVQAGGSLRLSCAASGIIFSKNAMGWYRQAPGKERELVATINRSGGSTYADSVKGRFTISRDNAKNTVYLQMNSLKPEDTAVYYCAKRASPFWRGYDSCGQGTQVTVSS”, “high polyreactivity”; in that of “QVQLVESGGGLVQAGGSLRLSCAASGRTFNRYAMGWYRQAPGKERELVAAINWSGGSTYYADSVKGRFTISRDNAKNTVYLQMNSLKPEDTAVYYCNAGLGKFPVKGGRRYRLDYWGQGTQVTVSS”, “low polyreactivity”.
On to “QVHLVESGGGLVQAGGSLRLTCAASGRTFGRYAMGWYRQAPGKERELVAAIRYTGGSTYADSVKGRFTISRDNAKNTVYLQMNSLKPEDTAVYYCNRGGAFNTRNEITRYGYWGQVTQVTVSS”, for which the “polyreactivity (PSR sort gate)” value was “low polyreactivity”.
To “QVQLVESGGGLVQAGGSLRLSCAASGRTFKYNAMGWYRQAPGKERELVATISGSGGRTYYADSVKGRFTISRDNAKNTVYLQMNSLKPEDTAVYYCNAPRVKWLDWGQGTQVTVSS” belongs “high polyreactivity”; to “QVQLVESGGGLVQAGGSLRLSCAASGFTFYRYAMGWYRQAPGKERELVAAISGSGCSKYYADSVKGRFTISRDNAKNTVYLHRNSLKPEDTAVYYCNTVWFYGAKYDYWGQGTQVTVSS”, “high polyreactivity”.
In the case of “QLQLVESAGGLVQAGGSLRLSCAASASTFGSYAMGWYRQATGKETELDASNTSAGSTNYADSVKGRFTISRDNAKNTVYLQMNSLKPVDTEVYYCNDVRYYSYQYVPEVTHRYGFWGQGTQVTVSS” it was “high polyreactivity”.
To “QVQLVESGGGLVQEGGSLRLSCAASGLTFSPYAMGWYRQAPGKERELVATITIGGSTKYADSVKGRFTISRDNAKNTVYLQMNSLKPEDTAVYYCAVRSGYVTRRYDYWGQGTQVTVSS” belongs “low polyreactivity”.

The record behind these values is the nanobody polyreactivity screen of Harvey et al. (2022).
